Legend:
[1] = molecular target: β-subunit of the F1 part of the Na+-F1FO-ATP synthase of Acetobacterium woodii, N-terminal His6 tag (Acetobacterium woodii (strain ATCC …, UniProt P50002)); experiment: LILBID-MS; tested with 2 mM ATP/2 mM MgCl2; δ binds only once the α3β3 hexameric head (α3β3γ/α3β3γε) is preformed
[2] = molecular target: α-subunit of the F1 part of the Na+-F1FO-ATP synthase of Acetobacterium woodii, N-terminal StrepI tag (Acetobacterium woodii (strain ATCC …, UniProt P50000)); experiment: as above
Chain of α-subunit of the F1 part of the Na+-F1FO-ATP synthase of Acetobacterium woodii, N-terminal StrepI tag (Acetobacterium woodii (P50000 whole entry): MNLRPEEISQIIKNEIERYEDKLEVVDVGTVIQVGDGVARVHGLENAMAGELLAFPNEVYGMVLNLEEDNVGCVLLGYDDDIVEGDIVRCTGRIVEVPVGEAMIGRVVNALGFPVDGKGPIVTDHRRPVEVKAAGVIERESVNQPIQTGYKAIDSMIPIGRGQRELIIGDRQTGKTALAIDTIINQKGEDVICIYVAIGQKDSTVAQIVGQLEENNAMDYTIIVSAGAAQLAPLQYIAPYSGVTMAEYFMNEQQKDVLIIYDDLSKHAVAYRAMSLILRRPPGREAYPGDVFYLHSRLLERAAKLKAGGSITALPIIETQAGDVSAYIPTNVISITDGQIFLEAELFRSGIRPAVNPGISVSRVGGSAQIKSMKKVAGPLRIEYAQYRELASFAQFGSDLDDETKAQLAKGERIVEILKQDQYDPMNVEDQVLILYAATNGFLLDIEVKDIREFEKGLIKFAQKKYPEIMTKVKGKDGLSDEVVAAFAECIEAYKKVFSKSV

Chain of β-subunit of the F1 part of the Na+-F1FO-ATP synthase of Acetobacterium woodii, N-terminal His6 tag (Acetobacterium woodii (P50002 whole entry): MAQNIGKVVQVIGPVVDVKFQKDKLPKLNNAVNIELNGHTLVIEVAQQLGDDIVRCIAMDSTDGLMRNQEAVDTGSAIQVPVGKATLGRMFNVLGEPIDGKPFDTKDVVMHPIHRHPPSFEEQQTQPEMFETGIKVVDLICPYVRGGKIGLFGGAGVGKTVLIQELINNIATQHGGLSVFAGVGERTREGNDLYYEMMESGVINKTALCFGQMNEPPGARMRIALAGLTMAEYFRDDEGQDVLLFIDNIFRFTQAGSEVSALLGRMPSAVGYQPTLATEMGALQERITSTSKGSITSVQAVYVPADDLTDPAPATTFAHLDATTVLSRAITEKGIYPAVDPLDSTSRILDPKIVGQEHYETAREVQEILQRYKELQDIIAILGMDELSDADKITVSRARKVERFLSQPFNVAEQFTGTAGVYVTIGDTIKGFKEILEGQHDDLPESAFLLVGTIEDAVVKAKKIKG

B1: δ-subunit of the F1 part of the Na+-F1FO-ATP synthase of Acetobacterium woodii, C-terminal His6 tag (protein)
chain: MSLVASKYARALFDVAVDKDQLDEIFSDFKTATDLFSSEKKFMDLMLTPSLNTGEKKGILMRSLESLSNQYVKNYLMILMDKNRFEDIFDIYEAFRKLCNEHKNLVEARVLTVIPLDETLRIALEENLAKRFNKKVILENEIDKSILGGAVVYVGDQIIDGSIKNQLSQMKKQVNNLRLH
Q: Does B1 bind [1]?
A: Result: no binding

Q: Does B1 bind [2]?
A: Result: no binding
